Laboratory results from article PMC4411306, “Osmosensing and scaffolding functions of the oligomeric four-transmembrane domain osmosensor Sho1” (Nature Communications, 2015).

B1: HA-Sho1* S54C (natural protein, Saccharomyces cerevisiae, UniProt P40073 1-367, looked up)
chain: MSISSKIRPTPRKPSRMATDHSFKMKKFYADPFAISSISLAIVSWVIAIGGSICSASTNESFPRFTWWGIVYQFLIISSLMLFYSFDLVDHYRIFITTSIAVAFVYNTNSATNLVYADGPKKAAASAGVILLSIINLIWILYYGGDNASPTNRWIDSFSIKGIRPSPLENSLHRARRRGNRNTTPYQNNVYNDAIRDSGYATQFDGYPQQQPSHTNYVSSTALAGFENTQPNTSEAVNLHLNTLQQRINSASNAKETNDNSNNQTNTNIGNTFDTDFSNGNTETTMGDTLGLYSDIGDDNFIYKAKALYPYDADDDDAYEISFEQNEILQVSDIEGRWWKARRANGETGIIPSNYVQLIDGPEEMHR
notes: Sho1, S. cerevisiae, Cys-less (C78S C85S) with a single Cys; source: S. cerevisiae KT079 (sho1Δ), GAL1 promoter, in membrane fraction; not shown: HA, N-terminal, kept
B2: HA-Sho1* A123C (natural protein, Saccharomyces cerevisiae, UniProt P40073 1-367, looked up)
chain: MSISSKIRPTPRKPSRMATDHSFKMKKFYADPFAISSISLAIVSWVIAIGGSISSASTNESFPRFTWWGIVYQFLIISSLMLFYSFDLVDHYRIFITTSIAVAFVYNTNSATNLVYADGPKKCAASAGVILLSIINLIWILYYGGDNASPTNRWIDSFSIKGIRPSPLENSLHRARRRGNRNTTPYQNNVYNDAIRDSGYATQFDGYPQQQPSHTNYVSSTALAGFENTQPNTSEAVNLHLNTLQQRINSASNAKETNDNSNNQTNTNIGNTFDTDFSNGNTETTMGDTLGLYSDIGDDNFIYKAKALYPYDADDDDAYEISFEQNEILQVSDIEGRWWKARRANGETGIIPSNYVQLIDGPEEMHR
notes: as for B1
B3: HA-Sho1* I53C (natural protein, Saccharomyces cerevisiae, UniProt P40073 1-367, looked up)
chain: MSISSKIRPTPRKPSRMATDHSFKMKKFYADPFAISSISLAIVSWVIAIGGSCSSASTNESFPRFTWWGIVYQFLIISSLMLFYSFDLVDHYRIFITTSIAVAFVYNTNSATNLVYADGPKKAAASAGVILLSIINLIWILYYGGDNASPTNRWIDSFSIKGIRPSPLENSLHRARRRGNRNTTPYQNNVYNDAIRDSGYATQFDGYPQQQPSHTNYVSSTALAGFENTQPNTSEAVNLHLNTLQQRINSASNAKETNDNSNNQTNTNIGNTFDTDFSNGNTETTMGDTLGLYSDIGDDNFIYKAKALYPYDADDDDAYEISFEQNEILQVSDIEGRWWKARRANGETGIIPSNYVQLIDGPEEMHR
notes: as for B1
B4: HA-Sho1* V105C (natural protein, Saccharomyces cerevisiae, UniProt P40073 1-367, looked up)
chain: MSISSKIRPTPRKPSRMATDHSFKMKKFYADPFAISSISLAIVSWVIAIGGSISSASTNESFPRFTWWGIVYQFLIISSLMLFYSFDLVDHYRIFITTSIAVAFCYNTNSATNLVYADGPKKAAASAGVILLSIINLIWILYYGGDNASPTNRWIDSFSIKGIRPSPLENSLHRARRRGNRNTTPYQNNVYNDAIRDSGYATQFDGYPQQQPSHTNYVSSTALAGFENTQPNTSEAVNLHLNTLQQRINSASNAKETNDNSNNQTNTNIGNTFDTDFSNGNTETTMGDTLGLYSDIGDDNFIYKAKALYPYDADDDDAYEISFEQNEILQVSDIEGRWWKARRANGETGIIPSNYVQLIDGPEEMHR
notes: as for B1
B5: HA-Sho1* N109C (natural protein, Saccharomyces cerevisiae, UniProt P40073 1-367, looked up)
chain: MSISSKIRPTPRKPSRMATDHSFKMKKFYADPFAISSISLAIVSWVIAIGGSISSASTNESFPRFTWWGIVYQFLIISSLMLFYSFDLVDHYRIFITTSIAVAFVYNTCSATNLVYADGPKKAAASAGVILLSIINLIWILYYGGDNASPTNRWIDSFSIKGIRPSPLENSLHRARRRGNRNTTPYQNNVYNDAIRDSGYATQFDGYPQQQPSHTNYVSSTALAGFENTQPNTSEAVNLHLNTLQQRINSASNAKETNDNSNNQTNTNIGNTFDTDFSNGNTETTMGDTLGLYSDIGDDNFIYKAKALYPYDADDDDAYEISFEQNEILQVSDIEGRWWKARRANGETGIIPSNYVQLIDGPEEMHR
notes: as for B1
B6: HA-Sho1* T66C (natural protein, Saccharomyces cerevisiae, UniProt P40073 1-367, looked up)
chain: MSISSKIRPTPRKPSRMATDHSFKMKKFYADPFAISSISLAIVSWVIAIGGSISSASTNESFPRFCWWGIVYQFLIISSLMLFYSFDLVDHYRIFITTSIAVAFVYNTNSATNLVYADGPKKAAASAGVILLSIINLIWILYYGGDNASPTNRWIDSFSIKGIRPSPLENSLHRARRRGNRNTTPYQNNVYNDAIRDSGYATQFDGYPQQQPSHTNYVSSTALAGFENTQPNTSEAVNLHLNTLQQRINSASNAKETNDNSNNQTNTNIGNTFDTDFSNGNTETTMGDTLGLYSDIGDDNFIYKAKALYPYDADDDDAYEISFEQNEILQVSDIEGRWWKARRANGETGIIPSNYVQLIDGPEEMHR
notes: Sho1, S. cerevisiae, Cys-less (C78S C85S) with a single Cys in TM2; also called Sho1-FL-T66C; source: S. cerevisiae KT079 (sho1Δ), GAL1 promoter, in membrane fraction; not shown: HA, N-terminal, kept
B7: HA-Sho1* G50C (natural protein, Saccharomyces cerevisiae, UniProt P40073 1-367, looked up)
chain: MSISSKIRPTPRKPSRMATDHSFKMKKFYADPFAISSISLAIVSWVIAICGSISSASTNESFPRFTWWGIVYQFLIISSLMLFYSFDLVDHYRIFITTSIAVAFVYNTNSATNLVYADGPKKAAASAGVILLSIINLIWILYYGGDNASPTNRWIDSFSIKGIRPSPLENSLHRARRRGNRNTTPYQNNVYNDAIRDSGYATQFDGYPQQQPSHTNYVSSTALAGFENTQPNTSEAVNLHLNTLQQRINSASNAKETNDNSNNQTNTNIGNTFDTDFSNGNTETTMGDTLGLYSDIGDDNFIYKAKALYPYDADDDDAYEISFEQNEILQVSDIEGRWWKARRANGETGIIPSNYVQLIDGPEEMHR
notes: Sho1, S. cerevisiae, Cys-less (C78S C85S) with a single Cys in TM1; source: S. cerevisiae KT079 (sho1Δ), GAL1 promoter, in membrane fraction; in intact cells; not shown: HA, N-terminal, kept
B8: HA-Sho1* T112C (natural protein, Saccharomyces cerevisiae, UniProt P40073 1-367, looked up)
chain: MSISSKIRPTPRKPSRMATDHSFKMKKFYADPFAISSISLAIVSWVIAIGGSISSASTNESFPRFTWWGIVYQFLIISSLMLFYSFDLVDHYRIFITTSIAVAFVYNTNSACNLVYADGPKKAAASAGVILLSIINLIWILYYGGDNASPTNRWIDSFSIKGIRPSPLENSLHRARRRGNRNTTPYQNNVYNDAIRDSGYATQFDGYPQQQPSHTNYVSSTALAGFENTQPNTSEAVNLHLNTLQQRINSASNAKETNDNSNNQTNTNIGNTFDTDFSNGNTETTMGDTLGLYSDIGDDNFIYKAKALYPYDADDDDAYEISFEQNEILQVSDIEGRWWKARRANGETGIIPSNYVQLIDGPEEMHR
notes: Sho1, S. cerevisiae, Cys-less (C78S C85S) with a single Cys in TM3; source: S. cerevisiae KT079 (sho1Δ), GAL1 promoter, in membrane fraction; not shown: HA, N-terminal, kept
B9: HA-Sho1*-A124C (natural protein, Saccharomyces cerevisiae, UniProt P40073 1-367, looked up)
chain: MSISSKIRPTPRKPSRMATDHSFKMKKFYADPFAISSISLAIVSWVIAIGGSISSASTNESFPRFTWWGIVYQFLIISSLMLFYSFDLVDHYRIFITTSIAVAFVYNTNSATNLVYADGPKKACASAGVILLSIINLIWILYYGGDNASPTNRWIDSFSIKGIRPSPLENSLHRARRRGNRNTTPYQNNVYNDAIRDSGYATQFDGYPQQQPSHTNYVSSTALAGFENTQPNTSEAVNLHLNTLQQRINSASNAKETNDNSNNQTNTNIGNTFDTDFSNGNTETTMGDTLGLYSDIGDDNFIYKAKALYPYDADDDDAYEISFEQNEILQVSDIEGRWWKARRANGETGIIPSNYVQLIDGPEEMHR
notes: Sho1, S. cerevisiae, Cys-less (C78S C85S) with a single Cys in TM4; source: S. cerevisiae KT079 (sho1Δ), GAL1 promoter, in membrane fraction; S. cerevisiae KY590-1, GAL1 promoter, in intact cells, then lysate; not shown: HA, N-terminal, kept
B10: HA-Sho1* T66C I94C (natural protein, Saccharomyces cerevisiae, UniProt P40073 1-367, looked up)
chain: MSISSKIRPTPRKPSRMATDHSFKMKKFYADPFAISSISLAIVSWVIAIGGSISSASTNESFPRFCWWGIVYQFLIISSLMLFYSFDLVDHYRCFITTSIAVAFVYNTNSATNLVYADGPKKAAASAGVILLSIINLIWILYYGGDNASPTNRWIDSFSIKGIRPSPLENSLHRARRRGNRNTTPYQNNVYNDAIRDSGYATQFDGYPQQQPSHTNYVSSTALAGFENTQPNTSEAVNLHLNTLQQRINSASNAKETNDNSNNQTNTNIGNTFDTDFSNGNTETTMGDTLGLYSDIGDDNFIYKAKALYPYDADDDDAYEISFEQNEILQVSDIEGRWWKARRANGETGIIPSNYVQLIDGPEEMHR
notes: Sho1, S. cerevisiae, Cys-less (C78S C85S) with Cys in TM2 and TM3; source: S. cerevisiae KT079 (sho1Δ), GAL1 promoter, in membrane fraction; not shown: HA, N-terminal, kept
B11: HA-Sho1* G50C A124C (natural protein, Saccharomyces cerevisiae, UniProt P40073 1-367, looked up)
chain: MSISSKIRPTPRKPSRMATDHSFKMKKFYADPFAISSISLAIVSWVIAICGSISSASTNESFPRFTWWGIVYQFLIISSLMLFYSFDLVDHYRIFITTSIAVAFVYNTNSATNLVYADGPKKACASAGVILLSIINLIWILYYGGDNASPTNRWIDSFSIKGIRPSPLENSLHRARRRGNRNTTPYQNNVYNDAIRDSGYATQFDGYPQQQPSHTNYVSSTALAGFENTQPNTSEAVNLHLNTLQQRINSASNAKETNDNSNNQTNTNIGNTFDTDFSNGNTETTMGDTLGLYSDIGDDNFIYKAKALYPYDADDDDAYEISFEQNEILQVSDIEGRWWKARRANGETGIIPSNYVQLIDGPEEMHR
notes: Sho1, S. cerevisiae, Cys-less (C78S C85S) with Cys in TM1 and TM4; also called G/C A/C; source: S. cerevisiae KT079 (sho1Δ), GAL1 promoter, in membrane fraction; not shown: HA, N-terminal, kept
B12: HA-Sho1* T66C T112C (natural protein, Saccharomyces cerevisiae, UniProt P40073 1-367, looked up)
chain: MSISSKIRPTPRKPSRMATDHSFKMKKFYADPFAISSISLAIVSWVIAIGGSISSASTNESFPRFCWWGIVYQFLIISSLMLFYSFDLVDHYRIFITTSIAVAFVYNTNSACNLVYADGPKKAAASAGVILLSIINLIWILYYGGDNASPTNRWIDSFSIKGIRPSPLENSLHRARRRGNRNTTPYQNNVYNDAIRDSGYATQFDGYPQQQPSHTNYVSSTALAGFENTQPNTSEAVNLHLNTLQQRINSASNAKETNDNSNNQTNTNIGNTFDTDFSNGNTETTMGDTLGLYSDIGDDNFIYKAKALYPYDADDDDAYEISFEQNEILQVSDIEGRWWKARRANGETGIIPSNYVQLIDGPEEMHR
notes: Sho1, S. cerevisiae, Cys-less (C78S C85S) with Cys in TM2 and TM3; also called T/C T/C; source: S. cerevisiae KT079 (sho1Δ), GAL1 promoter, in membrane fraction; not shown: HA, N-terminal, kept
B13: HA-Sho1* I94C T112C (natural protein, Saccharomyces cerevisiae, UniProt P40073 1-367, looked up)
chain: MSISSKIRPTPRKPSRMATDHSFKMKKFYADPFAISSISLAIVSWVIAIGGSISSASTNESFPRFTWWGIVYQFLIISSLMLFYSFDLVDHYRCFITTSIAVAFVYNTNSACNLVYADGPKKAAASAGVILLSIINLIWILYYGGDNASPTNRWIDSFSIKGIRPSPLENSLHRARRRGNRNTTPYQNNVYNDAIRDSGYATQFDGYPQQQPSHTNYVSSTALAGFENTQPNTSEAVNLHLNTLQQRINSASNAKETNDNSNNQTNTNIGNTFDTDFSNGNTETTMGDTLGLYSDIGDDNFIYKAKALYPYDADDDDAYEISFEQNEILQVSDIEGRWWKARRANGETGIIPSNYVQLIDGPEEMHR
notes: Sho1, S. cerevisiae, Cys-less (C78S C85S) with two Cys in TM3; source: S. cerevisiae KT079 (sho1Δ), GAL1 promoter, in membrane fraction; not shown: HA, N-terminal, kept

Biological target: the molecule itself
Assay: cross-linking; spontaneous disulfide bond formation: membrane fractions without chemical crosslinker, SDS–PAGE without 2-ME, anti-HA blot

| Protein | stoichiometry N |
| --- | --- |
| B1 | 2 |
| B2 | 2 |
| B3 | 2 |
| B4 | 2 |
| B5 | 2 |

Biological target: the molecule itself
Assay: cross-linking; membrane fraction of cells expressing a single-Cys mutant of HA-Sho1*; homo-trifunctional crosslinker TMEA; SDS–PAGE, anti-HA blot

| Protein | stoichiometry N |
| --- | --- |
| B6 | 3 |
| B7 | 2 |
| B8 | 3 |
| B9 | 2 |

Biological target: the molecule itself
Assay: cross-linking; detergent-free membrane fraction of sho1Δ cells expressing a Cys mutant of HA-Sho1*; 0.2 mM bifunctional thiol crosslinker (o-PDM, p-PDM or BMH), 20 min, 25 °C; SDS–PAGE, anti-HA blot

| Protein | stoichiometry N |
| --- | --- |
| B10 | 3 |
| B11 | 2 |
| B12 | 3 |
| B13 | 3 |
